Experimental data published in the nanobody polyreactivity screen of Harvey et al. (2022).

Test: yeast display, Sf9 membrane polyspecificity reagent, FACS + sequencing; frameworks hold sequencing errors
Procedure, shortened: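 Galactose induction of a Saccharomyces cerevisiae BJ5465 synthetic nanobody display library ran 36–48 hours. The cells were then stained for 1 hour at 4 °C with 10% biotinylated, detergent-solubilized Sf9 membrane reagent, pulled down on streptavidin microbeads and FACS-sorted into low and high (top ~1%) gates on expression and reagent-binding fluorescence. Labels for polyreactivity follow the gate of origin.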

Sequence	polyreactivity (PSR sort gate)
QVQLVESGGGLVQAGGSLRLSCAASGGIFPFYAMGWDRQAPGKERELVAVITSSGGSTFYSDSVKGRFTISRDNAKNTVYLQMNSLKPEDTAVYYGNARRVSREIWYGATGNDYWGQGTQGTVSS	low polyreactivity
QVQLVESGGGLVQAGGSLRLSCAASGGIFPFYAMGWYRQAPGKERELVAAISGIGDSTYYADSVKGRFTISRDNAKNTVYLQMNSLKPEDTAVYYCAREFSDGLSGKFDYWGQGTQVTVSS	low polyreactivity
QVQLVESGGGLVQAGGSLRLSCAASGGIFPTYVMGWYRQAPGKERELVAAIDRNGTSTTYADSVKGRFTISRDYAKNTVYLQMNSLKPEDTAVYYCAAGYNDQTSAYDYWGQGTQVTVSS	low polyreactivity
QVQLVESGGGLVQAGGSLRLSCAASGGIFRFNAMAWYRQAPGKERELVAAINRGGSTDYADSVKGRFTSSRDNAKNTVYLQMNSLKPEDTAVYYCAADYEYRPKTRDGYYWGQGTQVTVSS	low polyreactivity
QVQLVESGGGLVQAGGSLRLSCAASGGIFRGYAMGWYRQAPGKERELVATSRSSGRTNYADSVKGRFTISRDNAKNTVYLQMNSLKPEDTAVYFCNKRRWWQYDSWGDWVLGGDDYWGQGTQVTVSS	low polyreactivity
QVQLVESGGGLVQAGGSLRLSCAASGGIFRIYAMGGYRQAPGKERELVAAISRSGGTTYYADSVKGRFTISRDNAKNTVDLQMNSLKPEDTAVYYCNARYYQSRHVNDVPNYYWGHGTQVTVSS	high polyreactivity
QVQLVESGGGLVQAGGSLRLSCAASGGIFRIYAMGWYRQAPGKERELVASISRSGGRTYYADSVKGRFTISRDNAKNTVYLQMNSLKPEDTAVYYCAVSLQGYNQVDYYYWGQGTQVTVSS	high polyreactivity
QVQLVESGGGLVQAGGSLRLSCAASGGIFRVYAMGWYRQAPGKERELVAAISRSGSSTYYADSVKGRFTISRDNAKNTVYLQMTSLKPEDTAVYYCNAYSQYWLGNNYWGQGTQVTLSS	high polyreactivity
QVQLVESGGGLVQAGGSLRLSCAASGGIFRYSAMGWYRQAPGKERELVATDGDTYYADSVKGRFTISRDNAKNTVYLQLNSLKPEDTAVYYCAAEPVRYYAMEYWGQGTQVTVSS	low polyreactivity
QVQLVESGGGLVQAGGSLRLSCAASGGIFRYYAMGWYRQAPGKERELVAAISRSGDSTYYADSVKGRFTISRDNAKNTVYLQMNSLKPEDTAVYYCAATRLYWKIFYGDGDYWGQGTQVTVSS	high polyreactivity
QVQLVESGGGLVQAGGSLRLSCAASGGIFSPNAMGWYRQAPGKERELVAGITFSGGSTYYADSVKGRFTISRDNAKTTVYLQMNSLKPEDTAVYYCNARVPPQGWGPWKAFDYWGQGTQVTVSS	low polyreactivity
QVQLVESGGGLVQAGGSLRLSCAASGGIFSRNAMGWSRQAPGKERELVAAISSGGSTYYADSVKGRFTISRDNAKNTVYLQMNTLKPEDTAVYYCAAKRSGQRTLLGYWGQGTQVTVSS	high polyreactivity
QVQLVESGGGLVQAGGSLRLSCAASGGIFSYAMGWYRQAPGKERELVADINSDGSTTYADSVKGRFTISRDNAKNTVYLQMNSLKPEDTAVYYCAVDVSVNWPLLERYEYWGQGTQVTVSS	low polyreactivity
QVQLVESGGGLVQAGGSLRLSCAASGGIFSYYAMGWYRQAPGKEREFVAAIDWGGGSTYYADSVKGRFTISRDNAKNTVYLQMNSLKPEDTAVYYCAAEIYPIGWDDYDYWGQGTQVTVSS	low polyreactivity
QVQLVESGGGLVQAGGSLRLSCAASGGIFTDYTMGWYRQAPGKERELVAAITWTGGSTYYADSVKGRFTISRDNAKNSVYLQMNSLKPEDTAVYYCAADEYWVNLDYWGQGTQVTVSS	low polyreactivity
QVQLVESGGGLVQAGGSLRLSCAASGGIFTGNAMGWYRQAPGKERELVAAINRRTGSTYYADSVKGRFTISRDNAKNTVYLQMNSLKPEDTAVYYCATRRYRSYTYDYWGQGTQVTVSS	high polyreactivity
QVQLVESGGGLVQAGGSLRLSCAASGGIFTKNAMGWYRQAPGKERELVAGISRTGGNTYYADSVKGRFTISRDNAKNTVYLQMNSLKPEDSAVYYCAAGRYYAVWQSISGFDSWGQGTQVTVSS	low polyreactivity
QVQLVESGGGLVQAGGSLRLSCAASGGIFTKNAMGWYRQAPGKERELVAGISRTGGNTYYADSVKGRFTISRDNAKNTVYLQMNSLKPEDTAVYYCHWAKWYRYGGYRSRYDYWGQGTQVTVSS	low polyreactivity
QVQLVESGGGLVQAGGSLRLSCAASGGIFTLYVMGWYRQAPGKERELVAAISRTGGSTYYADSVKGRFTISRDNAKNTVYLQMNSLKPEDTAVYFCAALYRGGTRYGGYDYWGQGTQVTVSS	high polyreactivity
QVQLVESGGGLVQAGGSLRLSCAASGGIFTPYAMGWYRQAPGKERELVAAISRSGGSTYYADSVKGRFTISRDNAKNTVYLQMNSLKPEDTAVYYCNALFRALKAFSQYNYWGQGTQVTVSS	high polyreactivity
QVQLVESGGGLVQAGGSLRLSCAASGGIFTQYAMGWSRQAPWKERELVAAITRSGGTYYADSVKGRFTISRDNAKNTVYLQMNSLKPEDTAVYYCAAEWIDAYYDYDYWGQGTQVTVSS	high polyreactivity
QVQLVESGGGLVQAGGSLRLSCAASGGIFVSYAMGWSRQAPGKERELVARINTVDGTNYADSVKGRFTISRDNAKNTVYLQMNSLKPEDTAVYYCAVRSPVLASDYGYYFLRDYWGQGTQVTVSS	low polyreactivity

Sequence	polyreactivity (PSR sort gate)
QVQLVESGGGLVQAGGSLRLSCAASGGIFWFYAMGWYRQAPGKERELVASIRSSDGGTYYADSVKGRFTISRDNAKNTVYLQMNSLKPEDTAVYYCAADQTYERHWVYYWGQGTQVTVSS	low polyreactivity
QVQLVESGGGLVQAGGSLRLSCAASGGIFWYNAMGWYRQAPGKERELVAAITWNGGRTYYADSVKGRFTISRDNAKNTVYLQMNSLKPEDTAVYYCAARSPVKRQSRKQYYYWGQGTQVTVSS	high polyreactivity
QVQLVESGGGLVQAGGSLRLSCAASGGIFYDYAMGWYRQAPGKERELVAAITRSGDSTYYADSVKGRFTISRDNPKNTVYLQMNSLKPEDTAVYYCAADIWSSDYEEFYYWGQGTQVTVSS	low polyreactivity
QVQLVESGGGLVQAGGSLRLSCAASGGIFYFYAMGWSRQAPGKERELVAAISSNGGRTYYADSVKGRFTISRDNAKNTVYLQMNSLKPEDTAVYYCNAVSRVSDRHLATYDYWGQGTQVTVSS	high polyreactivity
QVQLVESGGGLVQAGGSLRLSCAASGGIFYLNAMGWYREAPGKERELVAAISSGVSTYYADSVKGRFTISRDNAKNTVYLQMNSLKPEDTAVYYCNADYNYPAWVGSWWDYDYWGQGTQVTVSS	low polyreactivity
QVQLVESGGGLVQAGGSLRLSCAASGGIFYLYAMGWYRQAPGKERELVAAITWSADSTYYADSVKGRFTISRDNAKYTVYLQMNSLKPEDTAVYYCNADVAWQYWNGWSWDIYDYWGQGTQVTVSS	low polyreactivity
QVQLVESGGGLVQAGGSLRLSCAASGGIFYTNAMGWYRQAPGKERELVAAIRKNGDSTNYADSVKGRFTISRDNAKYTVYLHMNSLKPEDTAVYYCNDELWPWAYDYWGQGTQVTVSS	low polyreactivity
QVQLVESGGGLVQAGGSLRLSCAASGGIIAINAMGWYRQAPGKERELVAAISWGDGITYYADSVKGRFTISRDNAKNTVDLQMNSLKPEDTAVYYCNARLLSGPGYDYWGQGTQVTVSS	low polyreactivity
QVQLVESGGGLVQAGGSLRLSCAASGGIIGWYAMGWYRQAPGKERELVAAINWSGADTYYADSVKGRFTISRDNAKNTVYLQMNSLKPEDTAVYYCAADGHKYRMDYWGQGTQVTVSS	low polyreactivity
QVQLVESGGGLVQAGGSLRLSCAASGGIKRPYAMGWSRQAPRKERELVAAISYSGGSTYYADSVKGRFTISRDTAKISVYLLMNSLKTEDTAVYYCIAYRQCSNVLTTYEYWGKGTQVTVSS	high polyreactivity
QVQLVESGGGLVQAGGSLRLSCAASGGILHYYAMGWYRQAPGKERELVAAISWSGGSTYYADSVKGRFTISRDNAKNTVYLQMNSLKPEDTAVYYCNKVGVAYIFGWMDYWGQGTQVTVSS	high polyreactivity
QVQLVESGGGLVQAGGSLRLSCAASGGILSYNTMGWYRQAPGKERELVAAITSSGGRTYYADSVKGRFTISRDNAKNTVYLQMNSLKPEDTAVYYCNTVYYFTYYYWGQGTQVTVSS	high polyreactivity
QVQLVESGGGLVQAGGSLRLSCAASGGILVFYAMGWYRQAPGKERELVAAINVSGGSTYYADSVKGRFTISRDNAKNTVYLQMNSLKPEDTAVYYCAALGPYLDYGVQYGYWGQGTQVTVSS	low polyreactivity
QVQLVESGGGLVQAGGSLRLSCAASGGIVGYYAMGWYRQAPGKERELVAAISWSGGSTYYADSVKGRFTISRDNAKNTVYLQMNSLKPEDTAVYYCAASDSYGYDYWGQGTQVTVSS	high polyreactivity
QVQLVESGGGLVQAGGSLRLSCAASGGIYRYYAMGWYRQAPGKERELVAAISTSGTDTYYADSVKGRFTISRDNAKNTVYVQMNSLIPEDTAVYYCAAELYRYGFYEPIYPYSYDYWGQGTQVTVSS	low polyreactivity
QVQLVESGGGLVQAGGSLRLSCAASGGLFTLNAMGWYRQAPGKEREMVAGISWSGDRTYYADSVKGRFTISRDNAKNTVYLQMNSLKPEDTAVYYCAAYDYWGQGTQVTVSS	low polyreactivity
QVQLVESGGGLVQAGGSLRLSCAASGGNFVFNAMGWYRQAPGKERELVAVITYSGGRTYYADSVKGRFTISRDNAKNTVYLQMNSLKPEDTAVYYCNARYGYPLGHSIYYYWGQGTQVTVSS	low polyreactivity
QVQLVESGGGLVQAGGSLRLSCAASGGTFAGNAMGWYRQAPGKERELVAAISKSGAITYYADSVKGRFTISRDNAKNTVYLQMNSLKPEDTAVYYCAARYLSGTSRYYYWGQGTQVTVSS	high polyreactivity
QVQLVESGGGLVQAGGSLRLSCAASGGTFAIYVKGWYRLAPGKERELVAAITRVGSTYADSVKGRFTISRDNAKNTVYLQMNSLKPEDTAVYYCAAVSGVRSGPWRYDYLGQGTQVTVSS	high polyreactivity
QVQLVESGGGLVQAGGSLRLSCAASGGTFARNAMGWYRQAPGKERELVAAIRGGVSTNYADSVKGRFTISRDNAKNTVYLQMNSLKPEDTAVYYCNASPPTLEGYWGQGTQVTVSS	low polyreactivity
QVQLVESGGGLVQAGGSLRLSCAASGGTFDSYAMGWYRQAPGKERELVAAITQSGGRTYYADSVKGRFTISRDNAKNTDYLQMNSLKPEDTAVYYCAAKGITRYGYWGQGTQVTVSS	high polyreactivity
